Results reported in EP1486506A1 (INSTITUT NATIONAL DE LA SANTE ET DE LA RECHERCHE MEDICALE …, dated 2004).

Molecular target: T1, LexA alone (UniProt P0A7C2 1-202)
T1 construct: also called only the LexA part of the fusion protein
T1 sequence: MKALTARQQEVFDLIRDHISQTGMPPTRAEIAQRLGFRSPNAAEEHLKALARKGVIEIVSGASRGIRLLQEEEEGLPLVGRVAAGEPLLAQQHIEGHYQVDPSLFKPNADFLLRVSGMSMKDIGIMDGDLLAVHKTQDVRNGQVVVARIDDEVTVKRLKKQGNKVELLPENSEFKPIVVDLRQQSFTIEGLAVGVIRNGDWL
Assay: yeast two-hybrid GFP reporter, flow cytometry (control, Fig. 2E)

B1: VP16-HIPK2/PEST (other)
chain: HVMRQQPTSTTSSRKSKQHQSSVRNVSTCEVTSSQAISSPQRSKRVKENTPPRCAMVHSSPACSTSVTCGWGDVASSTTRERQRQTIVIPDTPSPTVSVITISSDTDEEEEQKHAPTSTVSKQRKNVISCVTVHDSP
notes: range 789-925
  binding result: no binding
